From article PMC6291162
Blank lines part the entries; values can stand above or below the molecule they belong to.

What was measured:
[1] = target: proprietary Ral effector protein of the RalA G-LISA Activation Assay Kit; test: ELISA-based assay; conditions: Absorbances normalized to a no template control (NTC); mean of one experiment performed in triplicate; parent: 1.163
[2] = target: proprietary Ral effector protein of the RalA G-LISA Activation Assay Kit; test: ELISA; RalA G-LISA Activation Assay Kit (colorimetric); Ral effector protein on the Ral-BP binding plate; purified RALA incubated in the presence or absence of 15 uM GTP for 1.5 h at 25 °C, then 23.75 ng of RALA/GTP mixture applied; absorbances normalized to a no template control; one experiment in triplicate

- response [1]: 0.649 absorbance
Molecule: wild-type RALA (RAS-like small GTPase), 6-His-tagged recombinant protein (from UniProt P11233) V25M

- response [1]: 1.83 absorbance
Molecule: wild-type RALA (RAS-like small GTPase), 6-His-tagged recombinant protein (from UniProt P11233) S157A

Further lines, the molecule ahead of its results:

Molecule: wild-type RALA (RAS-like small GTPase), 6-His-tagged recombinant protein (from UniProt P11233) V25L
- response [1]: 0.286 absorbance

Molecule: wild-type RALA (RAS-like small GTPase), 6-His-tagged recombinant protein (from UniProt P11233) D130G
- response [1]: 0.281 absorbance

B1: RALA G23D, 6-His-tagged recombinant protein (natural protein)
chain: MAANKPKGQNSLALHKVIMVGSDGVGKSALTLQFMYDEFVEDYEPTKADSYRKKVVLDGEEVQIDILDTAGQEDYAAIRDNYFRSGEGFLCVFSITEMESFAATADFREQILRVKEDENVPFLLVGNKSDLEDKRQVSVEEAKNRAEQWNVNYVETSAKTRANVDKVFFDLMREIRARKMEDSKEKNGKKKRKSLAKRIRERCCIL
- fold change of binding against wild type [2]: 2 fold
